Results from patent US20110217282, “Novel Toxin-Antitoxin System” (UNIVERSITY OF MEDICINE AND DENTISTRY OF NEW JERSEY, published 2011).

Tests used:
MqsR-YgiT complex [1] = biological target: T1, MqsR-YgiT complex (Escherichia coli, UniProt Q46865;Q46864 SEQ:1-98,SEQ:1-131); test: EMSA; shift from 10 nM; stronger than YgiT alone; MqsR:YgiT 2:1; conditions: tags: N-terminal His on MqsR; chain copies: 4 MqsR + 2 YgiT inferred; label: 5'-32P
MqsR = MqsR (Escherichia coli, UniProt Q46865 SEQ:1-98); test: EMSA; no binding up to 80 nM; conditions: chain copies: 2 inferred; label: 5'-32P
YgiT [2] = biological target: T2, YgiT (Escherichia coli, UniProt Q46864 SEQ:1-131); test: EMSA; shift at 20 nM and higher, none at 5 nM; 50 mM Tris-HCl pH 7.2, 50 mM KCl, poly(dI-dC), 4 C; conditions: tags: C-terminal His; chain copies: 2 inferred; label: 5'-32P
MqsR-YgiT complex [3] = biological target: T1, MqsR-YgiT complex; test: EMSA; shift from 5 nM; stronger than YgiT alone; MqsR:YgiT 2:1; conditions: tags: N-terminal His on MqsR; chain copies: 4 MqsR + 2 YgiT inferred; label: 5'-32P
YgiT [4] = biological target: T2, YgiT; test: EMSA; shift at 10 nM and higher, none at 5 nM; 50 mM Tris-HCl pH 7.2, 50 mM KCl, poly(dI-dC), 4 C; conditions: tags: C-terminal His; chain copies: 2 inferred; label: 5'-32P

Chain of MqsR (Q46865 whole entry): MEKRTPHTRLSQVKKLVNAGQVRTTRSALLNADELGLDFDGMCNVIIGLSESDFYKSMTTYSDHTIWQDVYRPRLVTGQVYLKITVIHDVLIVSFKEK
T1 sequence (Q46865 whole entry, chain 1 of 2): as the sequence (Q46865 whole entry) above
T1 sequence (Q46864 whole entry, chain 2 of 2): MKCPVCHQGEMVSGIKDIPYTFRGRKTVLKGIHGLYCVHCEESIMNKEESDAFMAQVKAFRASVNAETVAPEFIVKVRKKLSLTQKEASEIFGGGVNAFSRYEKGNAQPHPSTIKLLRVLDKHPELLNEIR
T2 sequence (Q46864 whole entry): as the sequence (Q46864 whole entry, chain 2 of 2) above

Binder	binding result (MqsR-YgiT complex [1])	binding result (MqsR)	binding result (YgiT [2])	binding result (MqsR-YgiT complex [3])	binding result (YgiT [4])
mqsR-ygiT palindrome 2 (dsDNA) DNA 1: CCCAATTAACCTTTTAGGTTATAACCC DNA 2: GGGTTATAACCTAAAAGGTTAATTGGG	binds	no binding	binds	–	–
mqsR-ygiT palindrome 1 (dsDNA) DNA 1: CCCCTAACTAACCTTTTAGGTGCTTTTCCCC DNA 2: GGGGAAAAGCACCTAAAAGGTTAGTTAGGGG	–	no binding	–	binds	binds
